± gives the standard deviation.

Experimental findings from the supplement of paper PMC10567573 are described below.

The data set can be described thus: protein stability index of a GFP-peptide fusion (GPS, HEK-293T) (PSI 1-6); higher = more stable. The conditions noted are these: c terminus: a fixed tail appended.
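Also: 24-mer peptide tiles fused after GFP, lentivirally expressed, FACS-sorted into six equal bins by GFP/DsRed ratio, decoded by Illumina sequencing, PSI is the read-weighted mean bin number.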

Turning to GAYGNLKRLYDKAAKMYHQLKKCE [SMG5], the protein stability index was 2.45 ± 1 (treatment: DMSO) and 2.325 ± 0.014 (treatment: MLN4924 1 uM, 8 h). The matching figures for GDKLKFLSMLLTLKCEMNQMSGEP [ACSBG2]: 2.38 ± 1.1 and 2.56 ± 1. In the same order, the values of GEEALSLQALDPQQCVDKESSLGS [SLC22A15] are 5.36 ± 0.33 and 5.36 ± 0.32.

For GEENFEVVKQFVTGIIDSLTISPK [MATN2], the protein stability index reads like this: (treatment: DMSO) 3.18 ± 0.2; (treatment: MLN4924 1 uM, 8 h) 3.32 ± 0.46. With GEPLALPLDAGEYCVPRGNRRRFR [BEX1], the protein stability index reads like this: (treatment: DMSO) 4.8 ± 0.27; (treatment: MLN4924 1 uM, 8 h) 4.99 ± 0.25. As to GFVFGTTLIMLLSLAAFSVISVVS [RTN3], the protein stability index came to 3.2 ± 0.33 (treatment: DMSO) and 2.61 ± 0.58 (treatment: MLN4924 1 uM, 8 h). For GFVMVPFEYRGEQHKTCMLNATSK [EDNRA], the protein stability index by setting is: (treatment: DMSO) 2.24 ± 0.43; (treatment: MLN4924 1 uM, 8 h) 2.75 ± 0.37.

Regarding GGAGKGRTPSAFPQTPAAPPATLG [EHMT1], the protein stability index (treatment: DMSO) is 4.6 ± 0.13 and the protein stability index (treatment: MLN4924 1 uM, 8 h) was determined as 4.79 ± 0.059. In the same order, the values of GGFGQVYKVRHVHWKTWLAIKCSP [RIPK4] are 2.35 ± 0.85 and 2.05 ± 0.32. As for GGRAYQALHCPTGTEYTCKVYPVQ [TRIB3], the protein stability index amounted to 2.73 ± 0.3 (treatment: DMSO) and 2.76 ± 0.33 (treatment: MLN4924 1 uM, 8 h). For the sequence GHAQDLMDGLPPGDSNQLAWFDTD [CTNNB1], the protein stability index by setting is: (treatment: DMSO) 4.93 ± 0.31; (treatment: MLN4924 1 uM, 8 h) 4.7 ± 0.27. In the same order, the values of GHGNKVLCMDWCKDKRRIVSSSQD [GNB5] are 3.64 ± 0.28 and 3.85 ± 0.45. The matching figures for GHGTRKRVPLGRLELLEEVLALGL [RSAD1]: 2.15 ± 0.21 and 2.3 ± 0.51. The matching figures for GIPWEAGARQISYSIPEELEKGSF [PCDHGA10]: 4.24 ± 0.059 and 3.87 ± 0.34. With GIRQITSDDFCTFQMVLEGGVCCT [GFOD1], the protein stability index by setting is: (treatment: DMSO) 2.18 ± 0.21; (treatment: MLN4924 1 uM, 8 h) 2.22 ± 0.4. Take GKEDSTLQLLREENRALQQLLEQK [CBY2]: the protein stability index was found to be 4.81 ± 0.23 (treatment: DMSO) and 4.84 ± 0.38 (treatment: MLN4924 1 uM, 8 h). GKLLLRLPSLRTVSSSVIEQLFFV [NR2F2]: the protein stability index runs as follows: (treatment: DMSO) 2.81 ± 0.6; (treatment: MLN4924 1 uM, 8 h) 2.83 ± 0.34. The matching figures for GLAFFTFPNIASATKFKQLYRSRM [HMOX1]: 2.39 ± 0.78 and 1.98 ± 0.34. The matching figures for GLAGYLSGYDGTFLFQKPGDKYEH [POMT2]: 2.62 ± 0.7 and 2.91 ± 0.6. In the same order, the values of GLDSPPLYPSAPILGGSGPVRKLY [ESRRG] are 3.37 ± 0.13 and 3.49 ± 0.24. With GLGLEDADWTQGLPWRFEELLTCS [TEX19], the protein stability index runs as follows: (treatment: DMSO) 2.42 ± 0.47; (treatment: MLN4924 1 uM, 8 h) 2.76 ± 0.62. In the same order, the values of GPQSRELTLKVLRSSSCGDTELLG [C2CD2L] are 3.47 ± 0.28 and 3.59 ± 0.2. As for GPRPPAGELGSIGDHERAIDFSPY [CEBPB], the protein stability index is, setting by setting: (treatment: DMSO) 4.15 ± 0.25; (treatment: MLN4924 1 uM, 8 h) 4.28 ± 0.21. In the same order, the values of GPTSSNPRKRHREDSDVEMVEDDS [MLH1] are 5.32 ± 0.13 and 5.22 ± 0.6. The matching figures for GQRDRKAEHWKHKKEESGRERKKN [PBXIP1]: 5.08 ± 0.12 and 5.4 ± 0.15. For GQVAEDRFPESHLPIQTPGAFLRT [TLE6], the protein stability index was 3.53 ± 0.48 (treatment: DMSO) and 3.99 ± 0.38 (treatment: MLN4924 1 uM, 8 h). As to GRCIHAGCDRIIGSKKKFDKCMVC [ADAMTS4], the protein stability index (treatment: DMSO) was 3.66 ± 0.41 and the protein stability index (treatment: MLN4924 1 uM, 8 h) worked out at 3.56 ± 0.15. The matching figures for GRCTVRDFIHRHCQDQNVPVENFF [SDE2]: 2.51 ± 0.4 and 2.72 ± 0.049.

For the sequence GRDRNLAPDEKRSNVRWDHESVCK [LUC7L3], the protein stability index reads like this: (treatment: DMSO) 4.61 ± 0.41; (treatment: MLN4924 1 uM, 8 h) 4.55 ± 0.2. Take GSCEDEPMDSTMDDAVAGDFALIN [ATE1]: the protein stability index by setting is: (treatment: DMSO) 5.25 ± 0.25; (treatment: MLN4924 1 uM, 8 h) 5.44 ± 0.16.

With GSELKDSIPVTELSASGPFESHDL [POMP], the protein stability index by setting is: (treatment: DMSO) 5.28 ± 0.34; (treatment: MLN4924 1 uM, 8 h) 5.18 ± 0.57. As for GSGQNEESPRKRKKATEAIDSLRK [FBXO28], the protein stability index is, setting by setting: (treatment: DMSO) 5.11 ± 0.2; (treatment: MLN4924 1 uM, 8 h) 5.17 ± 0.2. Regarding GSLCSPWAAPRVGPLPPAPAMVRI [YPEL3], the protein stability index is, setting by setting: (treatment: DMSO) 2.95 ± 0.15; (treatment: MLN4924 1 uM, 8 h) 3.07 ± 0.45. Turning to GSLGFEPVYVSCIAQDTCTTTDHS [SPAG8], the protein stability index is 3.37 ± 0.35 (treatment: DMSO) and 3.64 ± 0.17 (treatment: MLN4924 1 uM, 8 h).

As for GSSPKSKTKWTKEDGHRTSTSAVP [ADD1], the protein stability index by setting is: (treatment: DMSO) 4.96 ± 0.17; (treatment: MLN4924 1 uM, 8 h) 4.81 ± 0.25.

Take GSTNLTGLFFPPQLNGTANDTAGP [NFE2L1]: the protein stability index by setting is: (treatment: DMSO) 3.93 ± 0.14; (treatment: MLN4924 1 uM, 8 h) 4 ± 0.25. In the same order, the values of GSYSSTMNGHQNGLDSPPLYPSAP [ESRRG] are 4.07 ± 0.23 and 4.3 ± 0.14. In turn, GTARYMSINTHLGKEQSRRDDLEA [CSNK1G3] returned a protein stability index (treatment: DMSO) of 4.75 ± 0.42 and a protein stability index (treatment: MLN4924 1 uM, 8 h) of 4.63 ± 0.16. The matching figures for GTLCIGAAAFSQCEEWSFFHAYYY [KCNK9]: 2.58 ± 0.53 and 2.9 ± 0.66.

With GTTMASGGRFRCPSCRHEVVLDRH [TRIM55], the protein stability index is 2.08 ± 0.41 (treatment: DMSO) and 2.12 ± 0.22 (treatment: MLN4924 1 uM, 8 h). As to GTVFQELNKLYPTHACREYLKNLP [TPH1], the protein stability index is, setting by setting: (treatment: DMSO) 2.46 ± 0.34; (treatment: MLN4924 1 uM, 8 h) 2.38 ± 0.26. The matching figures for GVSANASKAWHQKSHFQNSREWSG [PBXIP1]: 3.22 ± 0.33 and 3.23 ± 0.3. The matching figures for GYNDYTINVWDVLKGSRVSILFGH [GNB5]: 2.28 ± 0.39 and 2.3 ± 0.37. In the same order, the values of GYRTSAVASGLQFDVETRHVFIGD [WDFY2] are 2.86 ± 0.31 and 3.15 ± 0.36.

For GYVPSNYVERKNSLKKGSLVKNLK [NCK2], the protein stability index reads like this: (treatment: DMSO) 3.96 ± 0.16; (treatment: MLN4924 1 uM, 8 h) 3.89 ± 0.19.

HAAAVNGDKGALQRLIVGNSALKD [INVS]: the protein stability index reads like this: (treatment: DMSO) 4.29 ± 0.25; (treatment: MLN4924 1 uM, 8 h) 4.29 ± 0.32. For the sequence HAGKKGKLSEHLRYCDSILREMLS [BRD3], the protein stability index by setting is: (treatment: DMSO) 2.16 ± 0.41; (treatment: MLN4924 1 uM, 8 h) 2.21 ± 0.3. The matching figures for HAYFRGHSPSCLARVTGELTMTFP [FCHO1]: 2.21 ± 0.52 and 2.23 ± 0.13. In the same order, the values of HCGVLEFVADEGICYLPHWMMQNL [UFD1] are 2.57 ± 0.59 and 2.13 ± 0.39. In the same order, the values of HCLDQVGLFRKSGVKSRIQALRQM [DLC1] are 2.48 ± 0.36 and 2.4 ± 0.25. As to HCPESGEEAVILLEDLERELDEPQ [ZSCAN9], the protein stability index worked out at 5.55 ± 0.24 (treatment: DMSO) and 5.46 ± 0.44 (treatment: MLN4924 1 uM, 8 h). The matching figures for HCTTVDGQRQLMVPARDGTSCKLT [ADAMTSL2]: 4.41 ± 0.2 and 4.44 ± 0.11. Regarding HDELLAEHIKSLLIKNNSLPRKRQ [INTS3], the protein stability index came out at 5 ± 0.17 (treatment: DMSO) and 4.98 ± 0.2 (treatment: MLN4924 1 uM, 8 h). In the same order, the values of HFERRDNMNDNFLEGEEENELTLN [CHGB] are 5.53 ± 0.06 and 5.61 ± 0.21.

With HGHNIGKKMSCQQFIANLDQLNDG [PSD2], the protein stability index (treatment: DMSO) turned out to be 3.26 ± 0.24 and the protein stability index (treatment: MLN4924 1 uM, 8 h) was determined as 3.29 ± 0.16. In the case of HGLPFLPGTSFKDSTKTAFHRSQT [EFHC1], the protein stability index is, setting by setting: (treatment: DMSO) 3.53 ± 0.15; (treatment: MLN4924 1 uM, 8 h) 3.63 ± 0.087. Take HHAALNGHVEMVNLLLAKGANINA [ANKRD44]: the protein stability index was 2.51 ± 0.4 (treatment: DMSO) and 2.89 ± 0.2 (treatment: MLN4924 1 uM, 8 h). With HHAQTSKTERINALELLGATFVDK [FEM1C], the protein stability index by setting is: (treatment: DMSO) 3.83 ± 0.12; (treatment: MLN4924 1 uM, 8 h) 3.86 ± 0.31. The matching figures for HKTAGKRYVYRFVCDLQSLLGYTP [ETS1]: 3.08 ± 1 and 2.66 ± 0.57. In the same order, the values of HLARHAVACFLTRGDLWISWEEGM [CRY1] are 3.01 ± 0.72 and 2.98 ± 0.47. In the same order, the values of HLRIHTGEKPYKCTHCSKSFRQRA [ZNF449] are 2.83 ± 0.43 and 3.11 ± 0.38. For HMIQGAGSLEKALPIIQSNQVSSN [DLC1], the protein stability index by setting is: (treatment: DMSO) 4.22 ± 0.23; (treatment: MLN4924 1 uM, 8 h) 4.27 ± 0.24.

For the sequence HPFLYLSLEISPQNVDVNVHPTKH [MLH1], the protein stability index (treatment: MLN4924 1 uM, 8 h) stood at 2.37 ± 0.34. HQTLKCSALATQYMHCVNHAKQSM [CHCHD3]: the protein stability index runs as follows: (treatment: DMSO) 2.1 ± 0.22; (treatment: MLN4924 1 uM, 8 h) 2.29 ± 0.17. The matching figures for HRILLLAISLTKCLESTKLLADLK [MIA2]: 2.73 ± 0.35 and 3.339 ± 0.011.

For the sequence HSTSLKVPLARSLQISEELLSRNQ [LCOR], the protein stability index reads like this: (treatment: DMSO) 4 ± 0.24; (treatment: MLN4924 1 uM, 8 h) 3.97 ± 0.099. In the same order, the values of HTFAGDDCQAGLNFADEDEAQAFR [WAS] are 5.26 ± 0.18 and 4.92 ± 0.38. As for HVDPEEPWSPCSARFITDFLDNGY [ADAMTS4], the protein stability index runs as follows: (treatment: DMSO) 2.57 ± 0.39; (treatment: MLN4924 1 uM, 8 h) 2.88 ± 0.71. For HVGDFARDLAARWKKLVLVDRNTR [ELOA2], the protein stability index came to 2.39 ± 0.29 (treatment: DMSO) and 2.86 ± 0.34 (treatment: MLN4924 1 uM, 8 h). The matching figures for HVTHWMGQPFNSDDRNTACHHGLV [DLC1]: 2.51 ± 0.28 and 2.92 ± 0.31. In the same order, the values of HYICPRLGGIGFSSCIVCLFVGLY [SLC6A17] are 2.39 ± 0.54 and 2.3 ± 0.21. The matching figures for IAKYSDGASKAAGVFGFFATIVFA [CMTM3]: 2.86 ± 0.57 and 2.74 ± 0.41.

On to IALYFVSKKFKNCFQSCLCCCCYQ [EDNRA], for which the protein stability index came to 3.19 ± 1.1 (treatment: DMSO) and 2.13 ± 1.4 (treatment: MLN4924 1 uM, 8 h).
